± gives the standard deviation.

This series can be described thus: collision cross section of unmodified peptide (TIMS, N2, iRT-aligned); higher = larger / more extended gas-phase ion. In a few lines:
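Collision cross section values rest on the Mason-Schamp equation applied to calibrated, run-aligned mobility data from synthetic peptides. Mobility (1/K0) was calibrated with three reference ions and aligned per run to the median iRT peptide deviation, and 1–3 technical replicates of the most abundant feature per charge state were averaged. Data came from a timsTOF Pro/HT in dda-PASEF mode (nitrogen, ~2.4 mbar) after a 120-min nanoflow C18 gradient at 60 °C.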

In turn, SLKLNTAEDAK came in with a collision cross section (charge state: 2) of 372.65 ± 1.5 Å² and a collision cross section (charge state: 3) of 469.12 ± 5.3 Å².

Turning to SLYASSPGGVYATR, the collision cross section by setting is: (charge state: 2) 405.12 ± 0.66 Å²; (charge state: 3) 482.72 ± 0.22 Å².

For the sequence SNEEGSEEKGPEVR, the collision cross section was found to be 397.33 ± 0.57 Å² (charge state: 2) and 477.66 ± 4.4 Å² (charge state: 3).

The sequence SPASDTYIVFGEAK registered a collision cross section (charge state: 2) of 403.4 ± 0.16 Å² and a collision cross section (charge state: 3) of 478.14 ± 0.9 Å².

Consider SPDEAYAIAKK, for which the collision cross section came out at 371.22 ± 1.1 Å² (charge state: 2) and 435.25 ± 4.4 Å² (charge state: 3).

Consider SPPLPEHQKIPCNSAEPK, for which, for the setting “charge state: 3”, the collision cross section is 527.39 ± 1.3 Å².

For the sequence SPSDSGYSYETIGKTTK, the collision cross section is recorded as 441.25 ± 2.3 Å² (charge state: 2) and 517.54 ± 3.3 Å² (charge state: 3).

In the case of SQAGASELGPFSDPR, the collision cross section (charge state: 2) is given as 396.36 ± 0.66 Å².

In turn, SQLANTEPTK showed a collision cross section (charge state: 2) of 350.96 ± 0.68 Å².

As to SRFYSGFNSR, the collision cross section came to 370.83 ± 0.54 Å² (charge state: 2) and 436.82 ± 3.8 Å² (charge state: 3).

As for SRGAIISQYYNR, the collision cross section by setting is: (charge state: 2) 400.77 ± 1.6 Å²; (charge state: 3) 465.8 ± 0.66 Å².

Regarding SRGGGGNFGPGPGSNFR, where the note is “charge state: 3”, the collision cross section came out at 460.96 ± 1.4 Å².

For SSDLTDRVK, the collision cross section is, setting by setting: (charge state: 2) 344.22 ± 0.14 Å²; (charge state: 3) 424.95 ± 0.87 Å².

SSFAYKDQNENR displayed a collision cross section (charge state: 2) of 418.44 ± 1.2 Å² and a collision cross section (charge state: 3) of 454.53 ± 4.1 Å².

With SSGPGGQNVNKVNSK, the collision cross section runs as follows: (charge state: 2) 401.42 ± 1.8 Å²; (charge state: 3) 447.95 ± 4.2 Å².

The sequence SSSAGGQGSYVPLLR displayed a collision cross section (charge state: 2) of 402.55 ± 0.66 Å².

In turn, STCTYVGAAK had a collision cross section (charge state: 2) of 334.15 ± 0.48 Å².

For STGLELETPSLVPVKK, the collision cross section is listed as 457.57 ± 5.2 Å² (charge state: 2) and 520.54 ± 2.5 Å² (charge state: 3).

For the setting “charge state: 2”, STLEEPNLQPLQR showed a collision cross section of 408.53 ± 0.66 Å².

Regarding STNVTVAAARGIK, the collision cross section is 399.07 ± 1.1 Å² (charge state: 2) and 480.75 ± 3.1 Å² (charge state: 3).

The sequence SVGGSGGGSFGDNLVTR showed a collision cross section (charge state: 2) of 413.69 ± 1.1 Å².

As for SVSSSSYR, for the setting “charge state: 2”, the collision cross section is 308.48 ± 0.73 Å².

On to SYGIPYIETSAK, for which the collision cross section (charge state: 2) was determined as 384.66 ± 0.47 Å².

Take SYHLQIVTK: the collision cross section was 344.3 ± 0.59 Å² (charge state: 2) and 447.43 ± 1.7 Å² (charge state: 3).

Turning to SYISSQTNDTHK, the collision cross section is, setting by setting: (charge state: 2) 399.56 ± 0.14 Å²; (charge state: 3) 459.19 ± 1.2 Å².

SYSVGASGSSSR displayed a collision cross section (charge state: 2) of 351.41 ± 0.48 Å².

With SYVDTGGVSR, the collision cross section (charge state: 2) worked out at 337.16 ± 0.15 Å².

Sequence TAGSSGVTAGRPRPTAR gave a collision cross section (charge state: 3) of 538.39 ± 0.86 Å².

For TAIQAAGYPDK, the collision cross section (charge state: 2) is 362.76 ± 1.1 Å².

In the case of TATLATLATR, under “charge state: 2”, the collision cross section is listed as 333.86 ± 0.69 Å².

For the sequence TELLPGDRDNLAIQTR, the collision cross section (charge state: 3) is on record as 506.52 ± 0.86 Å².

On to TEVLSPNSKVESK, for which the collision cross section is given as 418.58 ± 2.2 Å² (charge state: 2) and 483.46 ± 5.8 Å² (charge state: 3).

TEVNSGFFYK: under “charge state: 2”, the collision cross section was found to be 366.57 ± 0.48 Å².

As for TFGKAAGPSLSHTSGGTQSK, the collision cross section is, setting by setting: (charge state: 2) 462.76 ± 2.3 Å²; (charge state: 3) 520.05 ± 2.3 Å².

In turn, TGGTQTDLFTCGKCK displayed a collision cross section (charge state: 2) of 431.32 ± 1.2 Å² and a collision cross section (charge state: 3) of 479.49 ± 5.3 Å².

For the setting “charge state: 2”, TGPPGSTGSR registered a collision cross section of 307.73 ± 0.78 Å².

Where the note is “charge state: 3”, TGPPGSTGSRGPPGPPGR came in with a collision cross section of 459.15 ± 0.33 Å².

On to THLAPYSDELR, for which the collision cross section amounted to 381.48 ± 0.47 Å² (charge state: 2) and 446.52 ± 1.7 Å² (charge state: 3).

THLGEALAPLSK yielded a collision cross section (charge state: 2) of 380.02 ± 0.67 Å² and a collision cross section (charge state: 3) of 462.22 ± 1 Å².

Turning to TLDEILQEKK, the collision cross section by setting is: (charge state: 2) 375.43 ± 1 Å²; (charge state: 3) 432.42 ± 3.6 Å².

TLHLSHLNRFPAR had a collision cross section (charge state: 3) of 511.92 ± 1.2 Å².

Take TLQKQSVVYGGK: the collision cross section is, setting by setting: (charge state: 2) 390.15 ± 1.7 Å²; (charge state: 3) 444.64 ± 5 Å².

TLTPASSPVSSPSK returned a collision cross section (charge state: 2) of 389.93 ± 0.025 Å².

In turn, TLTPASSPVSSPSKHGDR returned a collision cross section (charge state: 3) of 512.67 ± 1 Å².

With TPLTHALPGLSEQEGQK, the collision cross section (charge state: 3) was determined as 495.4 ± 0.86 Å².

Sequence TPNLYIYSKK had a collision cross section (charge state: 2) of 381.12 ± 1.4 Å² and a collision cross section (charge state: 3) of 430.18 ± 4.5 Å².

In the case of TPSSFRQPFTPTSR, the collision cross section (charge state: 3) was determined as 486.75 ± 0.79 Å².

Sequence TQAEGQGQGRGLGLVSAVR yielded a collision cross section (charge state: 3) of 513.29 ± 0.77 Å².

For TQAYQDQKPGTSGLR, the collision cross section runs as follows: (charge state: 2) 425.76 ± 1.4 Å²; (charge state: 3) 489.83 ± 5.9 Å².

Consider TQDQISNIKYHEEFEK, for which the collision cross section by setting is: (charge state: 2) 459.39 Å²; (charge state: 3) 550.5 ± 0.31 Å².

On to TQSFSLQER, for which, under “charge state: 2”, the collision cross section came out at 347.63 ± 0.14 Å².

With TSAVSSQANSQPPVQVSVK, the collision cross section runs as follows: (charge state: 2) 457.25 ± 1.5 Å²; (charge state: 3) 542.62 ± 0.28 Å².

Under “charge state: 2”, TSAYGPPTR came in with a collision cross section of 322.86 ± 1.6 Å².

For TSSEASVSSSVAK, the collision cross section (charge state: 2) is 370.17 ± 0.67 Å².

Take TSYAQHQQVR: the collision cross section worked out at 367.57 ± 0.48 Å² (charge state: 2) and 444.63 ± 0.86 Å² (charge state: 3).

For the sequence TTEETSKPK, the collision cross section by setting is: (charge state: 2) 341.31 ± 0.82 Å²; (charge state: 3) 430.05 ± 3.7 Å².

With TTGFYSGFSEVAEKR, the collision cross section came to 454.17 ± 3.2 Å² (charge state: 2) and 530.82 ± 1.6 Å² (charge state: 3).

TTLTSDESVKDHTTAGR registered a collision cross section (charge state: 3) of 528.1 ± 0.21 Å².

TTSYPTPRPYPKPAPSSGK came in with a collision cross section (charge state: 3) of 522.76 ± 0.86 Å².

For the sequence TVQGPPGEPGR, where the note is “charge state: 2”, the collision cross section was determined as 344.87 ± 3.1 Å².

With TVSKVDDFLANEAK, the collision cross section is, setting by setting: (charge state: 2) 420.02 ± 1.7 Å²; (charge state: 3) 500.46 ± 2.4 Å².

As for TVTNAVVTVPAYFNDSQR, the collision cross section is on record as 471.11 ± 0.99 Å² (charge state: 2) and 576.65 ± 1.1 Å² (charge state: 3).

In turn, TYVQDILR came in with a collision cross section (charge state: 2) of 349.04 ± 0.59 Å².

Take VDATADYICK: where the note is “charge state: 2”, the collision cross section is recorded as 353.92 ± 0.79 Å².

VDGDTQTTVEK gave a collision cross section (charge state: 2) of 367.05 ± 2.3 Å².

In the case of VDIDAPDVSIEGPDAKLK, the collision cross section runs as follows: (charge state: 2) 460.39 ± 2.9 Å²; (charge state: 3) 544.84 ± 1.8 Å².

As for VDIDVPDVNIEGPDAKLK, the collision cross section is given as 470.4 ± 2.9 Å² (charge state: 2) and 542.58 ± 2 Å² (charge state: 3).

For VDVEVPDVSLEGPEGKLK, the collision cross section (charge state: 2) stood at 461.73 ± 2.9 Å² and the collision cross section (charge state: 3) is 514.03 ± 36 Å².

On to VEELEGEITTLNHK, for which the collision cross section was found to be 424.1 ± 0.66 Å² (charge state: 2) and 513.8 ± 3.5 Å² (charge state: 3).

Where the note is “charge state: 2”, VELCSFSGYK displayed a collision cross section of 358.19 ± 0.59 Å².

VEPGSLESSPGLGRGR: the collision cross section is reported as 425.39 ± 1.8 Å² (charge state: 2) and 497.45 ± 0.11 Å² (charge state: 3).

With VEPIHAVVLPRGK, the collision cross section was determined as 414.74 ± 1.1 Å² (charge state: 2) and 483.53 ± 1.8 Å² (charge state: 3).

Turning to VETFSGVYK, where the note is “charge state: 2”, the collision cross section was found to be 332.43 ± 0.59 Å².

For VETTVTSLKTK, the collision cross section was 379.41 ± 0.92 Å² (charge state: 2) and 459.8 ± 3.1 Å² (charge state: 3).

In the case of VFIGNLNTLVVKK, the collision cross section is on record as 421.66 ± 1.2 Å² (charge state: 2) and 475.82 ± 2 Å² (charge state: 3).

VFIGNLNTLVVKKK: the collision cross section (charge state: 3) was 483.04 ± 2.6 Å².

Turning to VFLDCCNYITELR, the collision cross section (charge state: 2) turned out to be 421.63 ± 0.67 Å².

Regarding VFSIISSEKELK, the collision cross section reads like this: (charge state: 2) 413.02 ± 1.5 Å²; (charge state: 3) 485.92 ± 5.3 Å².

The sequence VGADGTVFATR registered a collision cross section (charge state: 2) of 348.87 ± 0.14 Å².

As for VGEFSGANKEK, the collision cross section worked out at 374.9 ± 0.4 Å² (charge state: 2) and 443.03 ± 4.2 Å² (charge state: 3).

On to VGIDTPDIDIHGPEGKLK, for which the collision cross section was determined as 461.05 ± 2.5 Å² (charge state: 2) and 538.36 ± 1.9 Å² (charge state: 3).

Take VGLQVVAVKAPGFGDNR: the collision cross section is, setting by setting: (charge state: 2) 462.44 ± 2.5 Å²; (charge state: 3) 487.54 ± 2.5 Å².

The sequence VGTASVLQPVKK gave a collision cross section (charge state: 2) of 400.02 ± 0.9 Å² and a collision cross section (charge state: 3) of 461.91 ± 3 Å².

In the case of VGVEAKQPNSAIR, the collision cross section came out at 404.68 ± 1.4 Å² (charge state: 2) and 493.5 ± 7.8 Å² (charge state: 3).

Regarding VGVEVPDVNIEGPEGKLK, the collision cross section reads like this: (charge state: 2) 456.21 ± 2.8 Å²; (charge state: 3) 537.32 ± 2.3 Å².

Take VGYPGPSGPLGAR: the collision cross section is, setting by setting: (charge state: 2) 357.93 ± 0.58 Å²; (charge state: 3) 439.38 ± 0.85 Å².

On to VGYPGPSGPLGARGIPGIK, for which the collision cross section by setting is: (charge state: 2) 447.51 ± 0.68 Å²; (charge state: 3) 562.22 ± 0.35 Å².

Consider VHATSTYR, for which the collision cross section stood at 325.88 ± 0.49 Å² (charge state: 2) and 398.18 ± 1.6 Å² (charge state: 3).

For the origin of these results see the supplement of paper PMC10598134.
